# From patent publication US20240132578A1
# Experiments:
# Experiment in all cases: cell-based or functional assay
# [1] = biological target: HIV-1 JR-FL Env E168K, on pseudovirus (HIV-1 isolate JR-FL (clade B))
# [2] = biological target: HIV-1 Env of isolate 92RW020 (clade A) (HIV-1)
# [3] = biological target: HIV-1 MGRM-AG-005 envelope glycoprotein (Env), clade AG pseudovirus (HIV-1)
# [4] = biological target: HIV-1 92TH021 envelope glycoprotein (Env), clade AE pseudovirus (HIV-1)
# [5] = biological target: HIV-1 APV17 envelope glycoprotein (Env), clade B pseudovirus (HIV-1)
# [6] = biological target: HIV-1 93IN905 envelope glycoprotein (Env) on virus (HIV-1, clade C, isolate 93IN905)
# [7] = biological target: HIV-1 JRCSF Env (pseudovirus) (HIV-1) (UniProt P20871)
# [8] = biological target: HIV-1 MGRM-D-001 Env (pseudovirus) (HIV-1)
# [9] = biological target: HIV-1 envelope glycoprotein (Env) of isolate APV6 (HIV-1)
# [10] = biological target: HIV-1 MGRM-D-001 envelope glycoprotein (Env) (HIV-1)
# [11] = biological target: HIV-1 JRCSF envelope glycoprotein (Env) (HIV-1) (UniProt P20871)
# [12] = biological target: HIV-1 APV17 envelope glycoprotein (Env) (HIV-1)
# [13] = biological target: HIV-1 Env of pseudovirus 98CN006 (HIV-1)
# [14] = biological target: HIV-1 Env of isolate MGRM-Chronic-B-011 (subtype B), on pseudovirus (HIV-1)
# [15] = biological target: HIV-1 Env of isolate MGRM-Chronic-B-020 (subtype B), on pseudovirus (HIV-1)
# [16] = biological target: HIV-1 Env of pseudovirus 92UG001 (HIV-1)
# Chain of 5329_C19 (PGT-136) (antibody) (VH): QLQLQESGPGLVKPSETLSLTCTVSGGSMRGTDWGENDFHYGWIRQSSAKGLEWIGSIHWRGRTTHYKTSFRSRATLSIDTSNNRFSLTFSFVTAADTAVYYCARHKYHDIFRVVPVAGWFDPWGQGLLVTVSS
# Chain of 5329_C19 (PGT-136) (antibody) (VL): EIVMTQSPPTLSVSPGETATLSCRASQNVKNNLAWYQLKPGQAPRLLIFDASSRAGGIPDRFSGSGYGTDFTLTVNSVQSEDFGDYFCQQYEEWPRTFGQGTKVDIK
# Chain of 1443_C16 (PG16) (TCN-116) (antibody) (VH): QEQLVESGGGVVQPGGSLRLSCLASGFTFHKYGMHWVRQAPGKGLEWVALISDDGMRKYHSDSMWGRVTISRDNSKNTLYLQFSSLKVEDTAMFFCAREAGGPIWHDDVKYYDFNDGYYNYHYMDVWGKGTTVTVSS
# Chain of 1443_C16 (PG16) (TCN-116) (antibody) (VL): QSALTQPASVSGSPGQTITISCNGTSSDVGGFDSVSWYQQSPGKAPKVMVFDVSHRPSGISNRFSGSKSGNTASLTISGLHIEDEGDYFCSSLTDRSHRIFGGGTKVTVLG
substance,measurement,setting,value
1443_C16 (PG16) (TCN-116) (antibody),"IC50 (ug/ml), pseudovirus neutralization, TZM-bl assay",[1],0.006 µg/mL
1496_C09 (PG9) (TCN-109) (antibody),Neutralization IC80,[2],1.04 µg/mL
same,Neutralization IC90,[2],3.4 µg/mL
same,neutralization IC50,[2],0.161 µg/mL
4858_P08 (PGT-123) (antibody),"IC50, pseudovirus neutralization",[3],0.104 µg/mL
same,IC80 (pseudovirus neutralization),[3],1.28 µg/mL
same,IC90 (pseudovirus neutralization),[3],6.38 µg/mL
same,IC95 (pseudovirus neutralization),[3],> 10 µg/mL
same,"IC50, pseudovirus neutralization",[4],> 10 µg/mL
same,IC80 (pseudovirus neutralization),[4],> 10 µg/mL
same,IC90 (pseudovirus neutralization),[4],> 10 µg/mL
same,IC95 (pseudovirus neutralization),[4],> 10 µg/mL
same,"IC50, pseudovirus neutralization",[5],0.18 µg/mL
same,IC80 (pseudovirus neutralization),[5],0.539 µg/mL
same,IC90 (pseudovirus neutralization),[5],1.01 µg/mL
same,IC95 (pseudovirus neutralization),[5],1.75 µg/mL
4877_D15 (PGT-122) (antibody),Neutralization IC80,[6],0.0505 µg/mL
same,Neutralization IC90,[6],0.108 µg/mL
same,Neutralization IC95,[6],0.217 µg/mL
same,neutralization IC50,[6],0.0138 µg/mL
5123_A06 (PGT-125) (antibody),"Neutralization by PGT-125, IC50",[7],0.006 µg/mL
same,"Neutralization by PGT-125, IC80",[7],0.0196 µg/mL
same,"Neutralization by PGT-125, IC90",[7],0.0392 µg/mL
same,"Neutralization by PGT-125, IC95",[7],0.0741 µg/mL
same,"Neutralization by PGT-125, IC50",[8],2.31 µg/mL
same,"Neutralization by PGT-125, IC80",[8],> 10 µg/mL
same,"Neutralization by PGT-125, IC90",[8],> 10 µg/mL
same,"Neutralization by PGT-125, IC95",[8],> 10 µg/mL
5141_B17 (PGT-126) (antibody),Neutralization IC80,[9],0.0681 µg/mL
same,Neutralization IC90,[9],0.123 µg/mL
same,Neutralization IC95,[9],0.213 µg/mL
same,neutralization IC50,[9],0.0249 µg/mL
5329_C19 (PGT-136) (antibody),Neutralization IC80,[10],> 10 µg/mL
same,Neutralization IC90,[10],> 10 µg/mL
same,Neutralization IC95,[10],> 10 µg/mL
same,neutralization IC50,[10],> 10 µg/mL
same,Neutralization IC80,[11],> 10 µg/mL
same,Neutralization IC90,[11],> 10 µg/mL
same,Neutralization IC95,[11],> 10 µg/mL
same,neutralization IC50,[11],> 10 µg/mL
same,Neutralization IC80,[12],> 10 µg/mL
same,Neutralization IC90,[12],> 10 µg/mL
same,Neutralization IC95,[12],> 10 µg/mL
same,neutralization IC50,[12],> 10 µg/mL
PGV04 (antibody),"IC50, pseudovirus neutralization",[13],1.32 µg/mL
same,"IC50, single-round pseudovirus neutralization",[14],0.497 µg/mL
same,"IC50, single-round pseudovirus neutralization",[15],1.26 µg/mL
same,"IC50, pseudovirus neutralization",[16],0.553 µg/mL
